# Assay results as given in patent US20240018502A1.
# Biological target: plasma purified human complement protein C3 (human) (UniProt P01024)
# Assay: cell-based or functional assay
# Sequence of plasma purified human complement protein C3 (human) (P01024 23-667, chain 1 of 2): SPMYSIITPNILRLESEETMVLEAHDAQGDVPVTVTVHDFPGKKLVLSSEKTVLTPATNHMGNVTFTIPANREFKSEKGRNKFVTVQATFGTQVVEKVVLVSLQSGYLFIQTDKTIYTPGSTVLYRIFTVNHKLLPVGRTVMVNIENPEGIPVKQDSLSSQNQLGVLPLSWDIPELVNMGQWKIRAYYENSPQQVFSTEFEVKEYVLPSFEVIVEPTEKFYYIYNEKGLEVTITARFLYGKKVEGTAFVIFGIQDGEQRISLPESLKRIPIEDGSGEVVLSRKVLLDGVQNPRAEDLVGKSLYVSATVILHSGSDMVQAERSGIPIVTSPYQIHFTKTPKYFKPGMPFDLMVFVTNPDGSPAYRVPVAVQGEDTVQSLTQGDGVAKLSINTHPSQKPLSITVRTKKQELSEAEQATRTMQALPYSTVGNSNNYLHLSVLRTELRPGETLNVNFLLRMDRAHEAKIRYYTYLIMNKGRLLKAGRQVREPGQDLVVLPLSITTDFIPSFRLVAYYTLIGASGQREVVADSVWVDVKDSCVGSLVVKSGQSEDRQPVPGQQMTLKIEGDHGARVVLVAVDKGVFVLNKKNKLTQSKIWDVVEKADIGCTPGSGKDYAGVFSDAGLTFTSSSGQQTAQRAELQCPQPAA
# Sequence of plasma purified human complement protein C3 (human) (P01024 672-1663, chain 2 of 2): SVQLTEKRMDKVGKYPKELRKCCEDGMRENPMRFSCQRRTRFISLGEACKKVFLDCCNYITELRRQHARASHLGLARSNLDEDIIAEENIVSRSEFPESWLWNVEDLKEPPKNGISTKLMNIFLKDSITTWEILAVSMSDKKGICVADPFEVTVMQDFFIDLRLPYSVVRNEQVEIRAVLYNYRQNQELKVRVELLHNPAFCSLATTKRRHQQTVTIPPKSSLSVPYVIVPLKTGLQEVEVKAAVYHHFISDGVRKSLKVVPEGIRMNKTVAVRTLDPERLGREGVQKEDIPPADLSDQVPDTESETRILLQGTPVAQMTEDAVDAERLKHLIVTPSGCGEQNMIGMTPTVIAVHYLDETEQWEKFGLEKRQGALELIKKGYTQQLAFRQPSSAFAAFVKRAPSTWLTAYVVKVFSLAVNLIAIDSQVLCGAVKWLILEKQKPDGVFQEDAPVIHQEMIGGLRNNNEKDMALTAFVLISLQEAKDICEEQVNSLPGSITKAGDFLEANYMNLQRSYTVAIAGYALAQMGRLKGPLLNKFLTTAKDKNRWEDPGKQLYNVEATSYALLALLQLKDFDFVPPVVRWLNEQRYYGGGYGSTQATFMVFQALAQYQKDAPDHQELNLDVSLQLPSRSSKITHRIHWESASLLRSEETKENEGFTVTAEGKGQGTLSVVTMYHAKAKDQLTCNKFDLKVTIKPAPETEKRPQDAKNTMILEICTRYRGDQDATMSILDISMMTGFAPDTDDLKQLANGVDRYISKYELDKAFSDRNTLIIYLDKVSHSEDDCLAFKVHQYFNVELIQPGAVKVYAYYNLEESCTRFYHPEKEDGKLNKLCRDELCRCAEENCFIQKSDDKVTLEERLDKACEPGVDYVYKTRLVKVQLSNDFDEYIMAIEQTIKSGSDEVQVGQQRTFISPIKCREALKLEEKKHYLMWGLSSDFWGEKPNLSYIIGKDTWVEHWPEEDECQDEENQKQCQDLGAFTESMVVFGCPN
row,Binder,EC50 of hC3 cleavage
1,MTSP-1 I41R/ins97aE/F97T/T98G/F99L/C122S/G151N/Q175T/Q192E (enzyme) VVGGTDADEGEWPWQVSLHALGQGHRCGASLISPNWLVSAAHCYIDDRGFRYSDPTQWTAFLGLHDQSQRSAPGVQERRLKRIISHPFFNDTEGLDYDIALLELEKPAEYSSMVRPISLPDASHVFPAGKAIWVTGWGHTQYGGTNALILQKGEIRVINQTTCENLLPQTITPRMMCVGFLSGGVDSCEGDSGGPLSSVEADGRIFQAGVVSWGDGCAQRNKPGVYTRLPLFRDWIKENTGV,1410 nM
2,MTSP-1 I41R/ins97aE/F97T/T98G/F99L/C122S/G151N/Q175T/Q192D (enzyme) VVGGTDADEGEWPWQVSLHALGQGHRCGASLISPNWLVSAAHCYIDDRGFRYSDPTQWTAFLGLHDQSQRSAPGVQERRLKRIISHPFFNDTEGLDYDIALLELEKPAEYSSMVRPISLPDASHVFPAGKAIWVTGWGHTQYGGTNALILQKGEIRVINQTTCENLLPQTITPRMMCVGFLSGGVDSCDGDSGGPLSSVEADGRIFQAGVVSWGDGCAQRNKPGVYTRLPLFRDWIKENTGV,9990 nM
3,MTSP-1 I41R/ins97aE/F97T/T98G/F99L/C122S/Q175L/Q192E (enzyme) VVGGTDADEGEWPWQVSLHALGQGHRCGASLISPNWLVSAAHCYIDDRGFRYSDPTQWTAFLGLHDQSQRSAPGVQERRLKRIISHPFFNDTEGLDYDIALLELEKPAEYSSMVRPISLPDASHVFPAGKAIWVTGWGHTQYGGTGALILQKGEIRVINQTTCENLLPQLITPRMMCVGFLSGGVDSCEGDSGGPLSSVEADGRIFQAGVVSWGDGCAQRNKPGVYTRLPLFRDWIKENTGV,523 nM
4,MTSP-1 H40P/I41R/F99L/C122S/G151E/Q192G (enzyme) VVGGTDADEGEWPWQVSLHALGQGPRCGASLISPNWLVSAAHCYIDDRGFRYSDPTQWTAFLGLHDQSQRSAPGVQERRLKRIISHPFFNDFTLDYDIALLELEKPAEYSSMVRPISLPDASHVFPAGKAIWVTGWGHTQYGGTEALILQKGEIRVINQTTCENLLPQQITPRMMCVGFLSGGVDSCGGDSGGPLSSVEADGRIFQAGVVSWGDGCAQRNKPGVYTRLPLFRDWIKENTGV,153 nM
5,MTSP-1 I41R/F97T/ins97aE/T98G/F99L/C122S/G151E/Q175T/Q192E (enzyme) VVGGTDADEGEWPWQVSLHALGQGHRCGASLISPNWLVSAAHCYIDDRGFRYSDPTQWTAFLGLHDQSQRSAPGVQERRLKRIISHPFFNDTEGLDYDIALLELEKPAEYSSMVRPISLPDASHVFPAGKAIWVTGWGHTQYGGTEALILQKGEIRVINQTTCENLLPQTITPRMMCVGFLSGGVDSCEGDSGGPLSSVEADGRIFQAGVVSWGDGCAQRNKPGVYTRLPLFRDWIKENTGV,363 nM
6,MTSP-1 I41R/F97T/ins97aE/T98G/F99L/C122S/G151N/Q175S/Q192E (enzyme) VVGGTDADEGEWPWQVSLHALGQGHRCGASLISPNWLVSAAHCYIDDRGFRYSDPTQWTAFLGLHDQSQRSAPGVQERRLKRIISHPFFNDTEGLDYDIALLELEKPAEYSSMVRPISLPDASHVFPAGKAIWVTGWGHTQYGGTNALILQKGEIRVINQTTCENLLPQSITPRMMCVGFLSGGVDSCEGDSGGPLSSVEADGRIFQAGVVSWGDGCAQRNKPGVYTRLPLFRDWIKENTGV,267 nM
7,MTSP-1 I41R/F97T/ins97aE/T98G/F99L/C122S/G151N/Q175I/Q192E (enzyme) VVGGTDADEGEWPWQVSLHALGQGHRCGASLISPNWLVSAAHCYIDDRGFRYSDPTQWTAFLGLHDQSQRSAPGVQERRLKRIISHPFFNDTEGLDYDIALLELEKPAEYSSMVRPISLPDASHVFPAGKAIWVTGWGHTQYGGTNALILQKGEIRVINQTTCENLLPQIITPRMMCVGFLSGGVDSCEGDSGGPLSSVEADGRIFQAGVVSWGDGCAQRNKPGVYTRLPLFRDWIKENTGV,1030 nM
8,MTSP-1 H40R/I41H/Y60gF/F97D/F99L/C122S/Q175K/Q192G/D217R/K224Q (enzyme) VVGGTDADEGEWPWQVSLHALGQGRHCGASLISPNWLVSAAHCYIDDRGFRFSDPTQWTAFLGLHDQSQRSAPGVQERRLKRIISHPFFNDDTLDYDIALLELEKPAEYSSMVRPISLPDASHVFPAGKAIWVTGWGHTQYGGTGALILQKGEIRVINQTTCENLLPQKITPRMMCVGFLSGGVDSCGGDSGGPLSSVEADGRIFQAGVVSWGRGCAQRNQPGVYTRLPLFRDWIKENTGV,93.4 nM
